The record followed here is article PMC11971343, “Role of charges in a dynamic disordered complex between an IDP and a folded domain” (Nature Communications, 2025).

The labels stand for the following.
B4: prothymosin α (ProTα), isoform 2 (natural protein, UniProt P06454-2 1-110, looked up)
chain: MSDAAVDTSSEITTKDLKEKKEVVEEAENGRDAPANGNANEENGEQEADNEVDEEEEEGGEEEEEEEEGDGEEEDGDEDEEAESATGKRAAEDDEDDDVDTKKQKTDEDD
notes: prothymosin α, isoform 2, used for NMR (unlabelled, 15N- or 13C,15N-labelled); BMRB 27215 holds its assignments; Isotope-labelled and unlabelled forms are treated as one molecule; also called 15N-ProTα; source: produced as previously described [16,34,52,78]

Holding throughout (details): both partners purified
Test [1] has as its target B4. Put plainly: NMR titration; 1H-15N HSQC of 15N-ProTα (28 μM) with GD up to 8x molar ratio, or 8x RST or CaM; 15N-ProTα (37 μM) with 2x full-length H1; 283 K, TBSK buffer (10 mM Tris, 155 mM KCl, 0.1 mM EDTA), pH 7.4.
The target in test [2] is B4. Put plainly: NMR titration; 1H-15N HSQC of 15N-ProTα (50 μM) with 4x molar ratio of GD-WT or a GD variant; sum of CSPs normalised to that with GD-WT at the same ratio and batch; 283 K, TBSK buffer, pH 7.4.
Test [3] has as its target T1, wild-type human histone H1.0, full length (produced recombinantly, for NMR) (human, UniProt P07305 1-194).
T1 construct: human linker histone H1.0, wild type, full length; also called full-length H1; linker histone H1.0; source: produced recombinantly [16]
In words: NMR titration; 1H-15N HSQC of 15N-ProTα (28 μM) with GD up to 8x molar ratio, or 8x RST or CaM; 15N-ProTα (37 μM) with 2x full-length H1; 283 K, TBSK buffer (10 mM Tris, 155 mM KCl, 0.1 mM EDTA), pH 7.4.

T1 sequence (P07305 whole entry): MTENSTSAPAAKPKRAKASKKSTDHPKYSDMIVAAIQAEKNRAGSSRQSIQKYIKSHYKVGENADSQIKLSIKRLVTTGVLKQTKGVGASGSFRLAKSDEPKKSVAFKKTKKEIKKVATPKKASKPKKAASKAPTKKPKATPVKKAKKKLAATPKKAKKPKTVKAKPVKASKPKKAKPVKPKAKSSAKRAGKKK

B1: RST domain of the plant protein RCD1 (domain or fragment)
chain: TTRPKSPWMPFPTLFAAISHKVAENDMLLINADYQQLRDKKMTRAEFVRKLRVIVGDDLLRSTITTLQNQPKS
notes: folded RST domain of the plant protein RCD1, net charge +5; also called RCD1-RST; source: produced as previously described [16,34,52,78]
For B1, the binding result in test [1] is reported as “binds”.

B2: H1-GD variant 6K1 (domain or fragment, human)
chain: DHPKYSDMIVAAIQAEKNRAGSSRQSIQQYIKSHYKVGENADSQIKLSIQRLVTTGVLQQTQGVGASGSFRLAK
notes: net charge +5; source: produced as previously described [16,34,52,78]
Regarding B2, in test [2], the “Relative CSPsum” value amounted to 0.11.

B3: H1-GD variant 6K2 (domain or fragment, human)
chain: DHPKYSDMIVAAIQAEQNRAGSSRQSIQKYIKSHYKVGENADSQIKLSIQRLVTTGVLKQTQGVGASGSFRLAQ
notes: as for B2
Take B3: the “Relative CSPsum” value in test [2] is 0.13.
For the molecule B4, the binding result in test [3] is “binds”.
